Measured values published in US20240301385, “DNA MODIFYING ENZYMES AND ACTIVE FRAGMENTS AND VARIANTS THEREOF AND METHODS OF USE” (LIFEEDIT THERAPEUTICS, INC., published 2024).

Tests used:
[1] = target: APG05840.1-L16-nAPG07433.1-USP2 (synthetic); assay: cell_activity; HEK293FT; PAM SEQ 152; conditions: tags: SV40 NLS, 3xFLAG N-term; USP2, nucleoplasmin NLS C-term
Method in brief: (§1)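 Editing read out by next-generation sequencing (MiSeq 2×250) of PCR amplicons spanning the target site, analysed for INDELs or % cytosine conversion per position (position 1 nearest PAM).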

APG30130-L32-nAPG07433.1 = target: T1, APG30130-L32-nAPG07433.1 (synthetic); assay: cell_activity; HEK293FT; PAM SEQ 152; conditions: tags: SV40 NLS, 3xFLAG N-term; nucleoplasmin NLS C-term
T1 chain: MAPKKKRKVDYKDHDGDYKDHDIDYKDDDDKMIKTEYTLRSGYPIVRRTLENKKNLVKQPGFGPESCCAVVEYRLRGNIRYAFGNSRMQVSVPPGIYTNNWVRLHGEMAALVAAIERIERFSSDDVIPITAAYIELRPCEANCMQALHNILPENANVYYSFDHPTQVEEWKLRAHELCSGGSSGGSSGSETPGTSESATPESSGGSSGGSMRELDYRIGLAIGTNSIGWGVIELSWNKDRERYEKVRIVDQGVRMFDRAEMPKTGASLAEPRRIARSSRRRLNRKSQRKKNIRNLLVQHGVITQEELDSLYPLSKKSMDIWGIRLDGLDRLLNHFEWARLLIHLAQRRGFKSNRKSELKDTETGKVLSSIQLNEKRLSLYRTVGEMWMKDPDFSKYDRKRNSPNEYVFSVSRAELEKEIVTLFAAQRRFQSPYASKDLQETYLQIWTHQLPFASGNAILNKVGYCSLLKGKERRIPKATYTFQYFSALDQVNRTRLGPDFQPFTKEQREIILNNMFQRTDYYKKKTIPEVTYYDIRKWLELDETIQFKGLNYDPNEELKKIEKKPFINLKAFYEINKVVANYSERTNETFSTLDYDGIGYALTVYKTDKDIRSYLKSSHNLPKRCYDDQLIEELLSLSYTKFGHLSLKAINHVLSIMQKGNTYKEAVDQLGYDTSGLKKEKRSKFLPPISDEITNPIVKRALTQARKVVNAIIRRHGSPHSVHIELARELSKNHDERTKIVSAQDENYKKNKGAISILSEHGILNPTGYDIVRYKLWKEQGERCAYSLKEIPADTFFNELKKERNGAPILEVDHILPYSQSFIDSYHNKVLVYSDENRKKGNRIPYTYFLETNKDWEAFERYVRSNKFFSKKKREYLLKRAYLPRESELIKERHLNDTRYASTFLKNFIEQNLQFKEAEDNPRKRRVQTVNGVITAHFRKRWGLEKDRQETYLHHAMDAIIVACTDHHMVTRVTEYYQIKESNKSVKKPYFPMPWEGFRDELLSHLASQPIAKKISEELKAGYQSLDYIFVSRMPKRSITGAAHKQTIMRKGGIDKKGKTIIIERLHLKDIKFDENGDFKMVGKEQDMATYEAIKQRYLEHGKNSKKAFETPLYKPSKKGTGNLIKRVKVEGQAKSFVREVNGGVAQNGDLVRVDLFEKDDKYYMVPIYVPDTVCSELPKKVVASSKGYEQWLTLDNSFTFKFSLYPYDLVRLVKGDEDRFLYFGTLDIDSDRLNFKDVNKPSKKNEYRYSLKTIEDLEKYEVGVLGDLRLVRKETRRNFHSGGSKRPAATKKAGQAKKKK
Method in brief: as §1

B1: SGN001101 sgRNA ; SGN001101 target (ssRNA ; dsDNA)
RNA: AUAUUUUCUUUAAUGGUGCCAGGCAGUCAUAGUUCCAUUAAAGCCAAAAGUGGCUUUGAUGUUUCUAUGAUAAGGGUUUCGACCCGUGGCGUCGGGGAUCGCCUGCCCAUUGAAAUGGGCUUCUCCCCAU
DNA 1: ATATTTTCTTTAATGGTGCCAGGCA
DNA 2: TGCCTGGCACCATTAAAGAAAATAT
activity [1]: 12.7 % mutated reads

B2: SGN000930 sgRNA ; SGN000930 target (ssRNA ; dsDNA)
RNA: GAACAACUCAAAUGGAAAUGAAUAUGUCAUAGUUCCAUGAAAGCCAAAAGUGGCUUUGAUGUUUCUAUGAUAAGGGUUUCGGCCCGUGGCGUCGGGGAUCGCCUGCCCAUUCCGAUGGGCUUCUCCCCAUUUAUU
DNA 1: GAACAACTCAAATGGAAATGAATAT
DNA 2: ATATTCATTTCCATTTGAGTTGTTC
activity [1]: 13.1 % mutated reads
activity (APG30130-L32-nAPG07433.1): 3.14 % mutated reads

B3: SGN000194 sgRNA ; SGN000194 target (ssRNA ; dsDNA)
RNA: GCCGCACAGCAUUCAGGUCGGUCAUAGUUCCAUUAAAGCCAAAAGUGGCUUUGAUGUUUCUAUGAUAAGGGUUUCGACCCGUGGCGUCGGGGAUCGCCUGCCCAUUGAAAUGGGCUUCUCCCCAUUUAUU
DNA 1: GCCGCACAGCATTCAGGTCG
DNA 2: CGACCTGAATGCTGTGCGGC
activity (APG30130-L32-nAPG07433.1): 3.29 % mutated reads
